Data from patent US20210371508A1 (University of Texas, published 2021).

Tests used:
[1] = target: T1, transferrin receptor 1 (TFRC) (human, UniProt P02786 1-760); assay: co-IP with α-NMES1 from NMES1-KD 1833 cells, western blot for TFRC; weaker TFRC band, number is normalised to the lower input
T1 construct: Endogenous protein in cell or membrane extracts used for co-IP

[2] = target: T1, transferrin receptor 1 (TFRC); assay: co-IP with α-NMES1 from Ctrl 1833 cells, western blot for TFRC; strong TFRC band
[3] = target: T2, recombinant human NMES1 protein (Normal Mucosa of Esophagus Specific 1) (human, UniProt Q9C002 1-83, limits assumed); assay: BLI (Octet), antibody on protein A biosensors, recombinant NMES1 0-900 nM, 1:1 fit
T2 construct: also called rhNMES1; recombinant NMES1 protein
Description: (§1) Binding constants (EC50) of a panel of monoclonal antibodies were estimated by titration ELISA and data is analyzed using the 4 parameter curve fitting with GraphPad Prism program (Table 5). […] All experiments were performed with shaking at 1,000 rpm. Background wavelength shifts were measured from reference biosensors that were loaded only with antibody with antigen. ForteBio's data analysis software was used to fit the data to a 1:1 binding model to extract an association rate and dissociation rate.

[4] = target: T2, recombinant human NMES1 protein (Normal …); assay: titration ELISA, plate coated with recombinant NMES1 (1 µg/mL), anti-human IgG Fc HRP detection
Description: as §1
Anti-human IgG Fc HRP-conjugated antibody was diluted 1:5000 and added at a volume of 100 μl per well for incubation at 37° C. for 1 hour. The plates were washed 3 times with PBST (0.05% Tween-20) between incubation steps. TMB substrate was added 100 μl per well for color development and 2 M H2504 was added 50 μl per well to stop the reaction. The absorbance at 450 nm was read by SpectraMax microplate reader. For EC50 determination, data points were plotted by GraphPad Prism8. EC50 values were calculated using a three-parameter nonlinear model.

T1 sequence (P02786 whole entry): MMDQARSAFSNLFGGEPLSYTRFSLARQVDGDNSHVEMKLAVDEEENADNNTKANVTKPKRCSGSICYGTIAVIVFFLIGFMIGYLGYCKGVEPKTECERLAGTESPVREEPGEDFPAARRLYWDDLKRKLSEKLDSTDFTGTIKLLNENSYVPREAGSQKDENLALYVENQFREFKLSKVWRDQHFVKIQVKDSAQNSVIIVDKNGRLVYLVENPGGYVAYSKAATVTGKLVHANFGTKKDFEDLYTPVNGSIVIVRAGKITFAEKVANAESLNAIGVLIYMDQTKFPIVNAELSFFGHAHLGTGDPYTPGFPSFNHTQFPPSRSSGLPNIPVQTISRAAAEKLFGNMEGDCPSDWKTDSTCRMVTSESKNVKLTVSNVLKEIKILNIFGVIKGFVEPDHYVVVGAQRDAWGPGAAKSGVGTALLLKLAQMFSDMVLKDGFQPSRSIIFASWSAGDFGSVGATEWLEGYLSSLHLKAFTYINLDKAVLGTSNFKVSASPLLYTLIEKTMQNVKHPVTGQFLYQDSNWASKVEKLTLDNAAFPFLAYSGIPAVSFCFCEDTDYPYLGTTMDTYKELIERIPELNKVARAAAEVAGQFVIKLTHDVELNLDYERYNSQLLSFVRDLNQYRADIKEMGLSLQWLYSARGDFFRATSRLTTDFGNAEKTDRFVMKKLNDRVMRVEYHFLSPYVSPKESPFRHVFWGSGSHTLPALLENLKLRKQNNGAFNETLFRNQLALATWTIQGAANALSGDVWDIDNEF

B1: NMES1, endogenous, in human breast cancer cells (BoM-1833) (ligand, UniProt Q9C002 1-83, looked up)
chain: MSFFQLLMKRKELIPLVVFMTVAAGGASSFAVYSLWKTDVILDRKKNPEPWETVDPTVPQKLITINQQWKPIEELQNVQRVTK
notes: Endogenous protein of the cells used for co-IP and for the cell assays; also called C15orf48
- Fold (IP/Input), TFRC [1]: 74.9 fold
- Fold (IP/Input), TFRC [2]: 79.8 fold

B2: NMES-1 anti-NMES1 monoclonal antibody (antibody, V domains shown)
VH: QVQLVQSGGGVVQPGRSLRLSCAASGFTFSSYAMHWVRQAPGKGLEWVAVISYDGSNKYYADSVKGRFTISRDNSKNTLYLQMNSLRAEDTAVYYCARLSRFGDESLKDPDYWGQGTLVTVSS
VL: DIVMTQSPLSLPVTLGQPASISCRSSQSLVHSDGNTYLNWFQQRPGQSPRRLIYKVSNRDSGVPDRFSGSGSGTDFTLKISRVEAEDVGVYYCMQGAHWPPTFGPGTKLEIK
notes: also called NM-1; NMES1-1
- Kd [3]: 15.5 nM
- koff [3]: 0.00499 s⁻¹
- kon [3]: 323000 M⁻¹ s⁻¹
- EC50 [4]: 2.98 nM

B3: NMES-3 anti-NMES1 monoclonal antibody (antibody, IgG1, V domains shown)
VH: EVQLLQSGGGVVRPGGSLRLSCAASGFTFDDYGMSWVRQAPGKGLEWVSGINWNGGSTGYADSVKGRFTISRDNAKNSLYLQMNSLRAEDTALYYCARASMVRGVYAFDIWGQGTMVIVSS
VL: DVQMTQSPSSLSASIGDRVTITCRASQSIGSYLNWYQQRPGKAPKLLIYSASSLQSGVPSRFSGSGSRSDFTLTIASLQPEDFATYYCQQSYSGPYTFGQGTKVDIK
notes: also called NM-3; NMES1-3
- Kd [3]: 56 nM
- koff [3]: 0.00301 s⁻¹
- kon [3]: 53800 M⁻¹ s⁻¹
- EC50 [4]: 40.6 nM

B4: NMES-4 anti-NMES1 monoclonal antibody (antibody, IgG1, V domains shown)
VH: EVQLVQSGGEVKKPGSSVKVSCKASGGTFSTYAISWVRQAPGQGLEWMGGIIPIFGTTNYAQKFQGRVTITADRSTSTAYMELSSLRSEDTAVYYCARVSELGDYYAMDVWGQGTTVTVSS
VL: DIQMTQSPSSLSASVGDRVTITCRASQGIASALAWYQQKPGKAPKLLIYDASNLESGVPSRFSGSGSGTDFTLTISSLQPEDFATYYCQQAHSFPLTFGGGTKLEIK
notes: also called NM-4; NMES1-4
- Kd [3]: 17.1 nM
- koff [3]: 0.00382 s⁻¹
- kon [3]: 223000 M⁻¹ s⁻¹
- EC50 [4]: 4.37 nM

B5: NMES-5 anti-NMES1 monoclonal antibody (antibody, IgG1, V domains shown)
VH: QVQLVQSGAEVKKPGASVKVSCKASGYTFTSYGISWVRQAPGQGLEWMGWISAYNGNTNYAQKLQGRVTMTTDTSTSTAYMELRSLRSDDTAVYYCARATRGNAFDIWGQGTMVSVSS
VL: QSALTQPASVSGSPGQSITISCTGTSSDVGAYNYVSWYQQHPGKAPKLMIYDVSNRPSGVSNRFSGSKSGNTASLTISGLQAEDEADYYCSSYTRSTTVVFGGGTKVTVL
notes: also called NM-5; NMES1-5
- Kd [3]: 27.9 nM
- koff [3]: 0.00463 s⁻¹
- kon [3]: 166000 M⁻¹ s⁻¹
- EC50 [4]: 0.216 nM

B6: NMES-6 anti-NMES1 monoclonal antibody (antibody, IgG1, V domains shown)
VH: QVQLVQSGAEVKKPGASVKVSCKASGYTFTSYGISWVRQAPGQGLEWMGWISAYNGNTNYAQKLQGRVTMTTDTSTSTAYMELRSLRSDDTAVYYCARAVGQLAFDYWGQGTLVTVSS
VL: QSALNQPPSASGSPGQSVTISCTGTSSDVGGYNYVSWYQQHPGKAPKLMIYEVSKRPSGVPDRFSGSKSGNTASLTVSGLQAEDEADYYCSSYAGSNNLVFGGGTKVTVL
notes: also called NM-6; NMES1-6
- Kd [3]: 19.5 nM
- koff [3]: 0.00441 s⁻¹
- kon [3]: 227000 M⁻¹ s⁻¹
- EC50 [4]: 2.39 nM

B7: NMES-7 anti-NMES1 monoclonal antibody (antibody, IgG1, V domains shown)
VH: EVQLVQSGAEVKKPGASVKVSCKASGYTFNRDAISWVRQAPGQGLEWMGWISGYNGNTYYAHKVLGRATMTTDTSTNTAYMELRSLTSDDTAMYYCARVGLQPDTTMDHWGQGTLVTVSS
VL: DIQMTQSPSSLSASVGDRVTITCRASQDIRNDLAWYQQKPGKAPKLLIYTASSLQTGVPSRFSGSGSGTDFTLSISSLQPEDFATYYCLQDYKYPLTFGGGTKLEIK
notes: also called NM-7; NMES1-7
- Kd [3]: 39.8 nM
- koff [3]: 0.00595 s⁻¹
- kon [3]: 150000 M⁻¹ s⁻¹
- EC50 [4]: 14.4 nM

B8: NMES-10 anti-NMES1 monoclonal antibody (antibody, IgG1, V domains shown)
VH: QVQLVQSGAEVKKPGASVKVSCKASGYTFTSYGISWVRQAPGQGLEWMGWISAYNGNTNYAQKLQGRVTMTTDTSTSTAYMELRSLRSDDTAVYYCARATFGNAFDIWGQGTTVTVSS
VL: QSALTQPASVSGSPGQSITISCTGTSSDVGGYNYVSWYQQHPGKAPKLMIYDVSNRPSGVSNRFSGSKSGNTASLTISGLQAEDEADYYCSSYTSSSTLVVFGGGTKVTVL
notes: also called NM-10; NMES1-10
- Kd [3]: 89.9 nM
- koff [3]: 0.0131 s⁻¹
- kon [3]: 146000 M⁻¹ s⁻¹
- EC50 [4]: 306 nM
